Source: patent US20120316071A1 (published 2012)

Assays:
[1] = target: T1, Recombinant Human DLL4 (delta-like protein 4) (human, UniProt Q9NR61 27-529); test: 96-well plate ECL (MSD) binding assay on coated DLL4, 10 nM Fab
T1 construct: Bought recombinant human DLL4 (R&D Systems Cat#1506-D4/CF), coated on the plate; also called rHuman DLL4; Delta-like 4

[2] = target: T1, Recombinant Human DLL4 (delta-like …); test: ELISA on coated DLL4, 100 nM Fab
[3] = target: T2, rHuman Erythropoietin R/Fc Chimera, CF (R&D Systems Cat#963-ER) (human, UniProt P19235 25-250); test: ECL multispot (MSD), antigen spotted, Fab in solution;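 also: purified Fab incubated 1 h at 20 °C on antigen-spotted wells, bound Fab detected via TAG detection antibody, ECL compared with each well's blank, ratio of 4 or above scored as hit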
T2 construct: Bought recombinant Fc chimera; also called EPO R; EPO R/Fc; Fc part of the bought chimera not given
T2 sequence (looked up): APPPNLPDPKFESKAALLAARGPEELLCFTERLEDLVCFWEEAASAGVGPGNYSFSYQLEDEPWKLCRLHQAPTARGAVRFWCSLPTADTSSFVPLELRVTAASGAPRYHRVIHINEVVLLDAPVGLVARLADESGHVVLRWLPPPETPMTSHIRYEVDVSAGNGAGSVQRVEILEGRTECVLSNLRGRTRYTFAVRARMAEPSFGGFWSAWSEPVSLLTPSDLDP

[4] = target: T3, rHuman ErbB2/Fc Chimera, CF (R&D Systems Cat#1129-ER) (human, UniProt P04626 23-652); test: as above
T3 construct: Bought recombinant Fc chimera; also called human epidermal growth factor 2 receptor; Fc part of the bought chimera not given

[5] = target: T4, rHuman HGF R/c-MET/Fc Chimera, CF (R&D Systems Cat#358-MT/CF) (human, UniProt P08581 25-932); test: as above
T4 construct: Bought recombinant Fc chimera; also called HGF R/Fc; hepatocyte growth factor receptor; Fc part of the bought chimera not given

[6] = target: T5, rHuman IGF-1 sR, (IGF-1 sR), CF (R&D Systems Cat#391-GR) (human, UniProt P08069 31-932); test: as above
T5 construct: Bought recombinant soluble receptor; The column head prints only 'IGF-1'; also called insulin-like growth factor-1 soluble receptor

[7] = target: T6, rHuman P-Cadherin/Fc Chimera, CF (R&D Systems Cat#861-PC) (human, UniProt P22223 108-654); test: as above
T6 construct: Bought recombinant Fc chimera; Fc part of the bought chimera not given

[8] = target: T7, rHuman CD44/Fc Chimera, CF (R&D Systems Cat#3660-CD) (human, UniProt P16070 21-220); test: as above
T7 construct: Bought recombinant Fc chimera; Fc part of the bought chimera not given

[9] = target: T8, rHuman EGF R/Fc Chimera, CF (R&D Systems Cat#344-ER) (human, UniProt P00533 25-645); test: as above
T8 construct: Bought recombinant Fc chimera; also called epidermal growth factor receptor; Fc part of the bought chimera not given

[10] = target: T9, rHuman Notch-1/Fc Chimera, CF (R&D Systems Cat#3647-TK) (human, UniProt P46531 19-526); test: as above
T9 construct: Bought recombinant Fc chimera; Fc part of the bought chimera not given

T4 sequence (P08581 25-932, change not shown): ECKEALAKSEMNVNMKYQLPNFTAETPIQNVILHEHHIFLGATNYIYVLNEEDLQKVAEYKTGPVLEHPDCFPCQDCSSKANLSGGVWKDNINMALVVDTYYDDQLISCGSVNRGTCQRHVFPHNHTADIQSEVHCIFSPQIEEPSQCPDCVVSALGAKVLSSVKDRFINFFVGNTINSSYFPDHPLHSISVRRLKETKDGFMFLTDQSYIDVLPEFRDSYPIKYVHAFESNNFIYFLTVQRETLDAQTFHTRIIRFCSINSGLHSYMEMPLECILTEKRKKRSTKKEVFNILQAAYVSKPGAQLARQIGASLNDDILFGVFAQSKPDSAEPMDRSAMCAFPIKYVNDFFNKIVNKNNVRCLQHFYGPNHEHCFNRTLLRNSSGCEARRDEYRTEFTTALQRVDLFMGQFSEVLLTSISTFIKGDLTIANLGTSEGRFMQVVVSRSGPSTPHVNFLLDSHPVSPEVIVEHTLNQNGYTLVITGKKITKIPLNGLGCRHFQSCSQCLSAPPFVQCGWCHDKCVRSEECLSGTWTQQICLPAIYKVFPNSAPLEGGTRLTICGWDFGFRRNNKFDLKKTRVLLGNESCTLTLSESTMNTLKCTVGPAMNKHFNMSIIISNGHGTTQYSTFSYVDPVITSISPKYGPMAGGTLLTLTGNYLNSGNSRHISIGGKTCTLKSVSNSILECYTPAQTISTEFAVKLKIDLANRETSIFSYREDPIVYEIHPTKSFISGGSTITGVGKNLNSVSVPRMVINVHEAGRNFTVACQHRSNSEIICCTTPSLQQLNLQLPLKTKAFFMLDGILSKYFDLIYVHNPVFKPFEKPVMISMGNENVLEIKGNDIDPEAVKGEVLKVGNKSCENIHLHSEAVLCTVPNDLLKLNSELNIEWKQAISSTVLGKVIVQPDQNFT

B1: Fab VH1-46_IGHD6-6*01_IGHJ1*01 S102A/S103P/S104F/H111F S54P & L6_IGKJ1*01 (Fab, V domains shown)
VH: QVQLVQSGAEVKKPGASVKVSCKASGYTFTSYYMHWVRQAPGQGLEWMGIINPPGGSTSYAQKFQGRVTMTRDTSTSTVYMELSSLRSEDTAVYYCAREEYAPFSAEYFQFWGQGTLVTVSS
VL: not shown
notes: Fab made in E. coli; CH1 with tags and kappa CL are not included; also called APFF S54P
With B1 the “ECL signal” value [1] was 10100 and the “ELISA signal” value [2] was 0.

B2: Fab VH1-46_IGHD6-6*01_IGHJ1*01 S102A/S103P/S104F/H111F (APFF) & L6_IGKJ1*01 S28N (Fab, V domains shown)
VH: QVQLVQSGAEVKKPGASVKVSCKASGYTFTSYYMHWVRQAPGQGLEWMGIINPSGGSTSYAQKFQGRVTMTRDTSTSTVYMELSSLRSEDTAVYYCAREEYAPFSAEYFQFWGQGTLVTVSS
VL: EIVLTQSPATLSLSPGERATLSCRASQNVSSYLAWYQQKPGQAPRLLIYDASNRATGIPARFSGSGSGTDFTLTISSLEPEDFAVYYCQQRSNWPPWTFGQGTKVEIKR
notes: Fab; VH cloned into Plasmid A (CH1, His6 and Flag tags) and VL into Plasmid C (kappa CL); also called APFF / S28N
With B2 the ECL signal [3] was 440, the ECL signal [4] was 363 and the ECL signal [5] was 406. For the same binder, the ECL signal [6] was 331, the ECL signal [7] was 447 and the ECL signal [8] was 399. It also gave an ECL signal [9] of 325 and an ECL signal [10] of 243.

B3: Fab VH1-46_IGHD6-6*01_IGHJ1*01 S102A/S103P/S104F/H111F (APFF) & L6_IGKJ1*01 S28W (Fab, V domains shown)
VH: QVQLVQSGAEVKKPGASVKVSCKASGYTFTSYYMHWVRQAPGQGLEWMGIINPSGGSTSYAQKFQGRVTMTRDTSTSTVYMELSSLRSEDTAVYYCAREEYAPFSAEYFQFWGQGTLVTVSS
VL: EIVLTQSPATLSLSPGERATLSCRASQWVSSYLAWYQQKPGQAPRLLIYDASNRATGIPARFSGSGSGTDFTLTISSLEPEDFAVYYCQQRSNWPPWTFGQGTKVEIKR
notes: Fab; VH cloned into Plasmid A (CH1, His6 and Flag tags) and VL into Plasmid C (kappa CL); also called APFF / S28W
B3 was tested, and the ECL signal [3] was 489, the ECL signal [4] was 316 and the ECL signal [5] was 414. The ECL signal [6] was 489, the ECL signal [7] was 385 and the ECL signal [8] was 404. For the same binder, the ECL signal [9] was 283 and the ECL signal [10] was 349.

B4: Fab VH1-46_IGHD6-6*01_IGHJ1*01 S102A/S103P/S104F/H111F (APFF) & L6_IGKJ1*01 S28R (Fab, V domains shown)
VH: QVQLVQSGAEVKKPGASVKVSCKASGYTFTSYYMHWVRQAPGQGLEWMGIINPSGGSTSYAQKFQGRVTMTRDTSTSTVYMELSSLRSEDTAVYYCAREEYAPFSAEYFQFWGQGTLVTVSS
VL: EIVLTQSPATLSLSPGERATLSCRASQRVSSYLAWYQQKPGQAPRLLIYDASNRATGIPARFSGSGSGTDFTLTISSLEPEDFAVYYCQQRSNWPPWTFGQGTKVEIKR
notes: Fab; VH cloned into Plasmid A (CH1, His6 and Flag tags) and VL into Plasmid C (kappa CL); also called APFF / S28R
With B4 the ECL signal [3] was 542, the ECL signal [4] was 318 and the ECL signal [5] was 378. The ECL signal [6] was 437, the ECL signal [7] was 395 and the ECL signal [8] was 378. For the same binder, the ECL signal [9] was 403 and the ECL signal [10] was 425.

B5: Fab VH1-46_IGHD6-6*01_IGHJ1*01 S102A/S103P/S104F/H111F S54R & L6_IGKJ1*01 (Fab, V domains shown)
VH: QVQLVQSGAEVKKPGASVKVSCKASGYTFTSYYMHWVRQAPGQGLEWMGIINPRGGSTSYAQKFQGRVTMTRDTSTSTVYMELSSLRSEDTAVYYCAREEYAPFSAEYFQFWGQGTLVTVSS
VL: not shown
notes: Fab made in E. coli; CH1 with tags and kappa CL are not included; also called APFF S54R
With B5 the “ECL signal” value [1] was 26300 and the “ELISA signal” value [2] was 0.02.

B6: Fab VH1-46_IGHD6-6*01_IGHJ1*01 S102A/S103P/S104F/H111F (APFF) & L6_IGKJ1*01 S28H (Fab, V domains shown)
VH: QVQLVQSGAEVKKPGASVKVSCKASGYTFTSYYMHWVRQAPGQGLEWMGIINPSGGSTSYAQKFQGRVTMTRDTSTSTVYMELSSLRSEDTAVYYCAREEYAPFSAEYFQFWGQGTLVTVSS
VL: EIVLTQSPATLSLSPGERATLSCRASQHVSSYLAWYQQKPGQAPRLLIYDASNRATGIPARFSGSGSGTDFTLTISSLEPEDFAVYYCQQRSNWPPWTFGQGTKVEIKR
notes: Fab; VH cloned into Plasmid A (CH1, His6 and Flag tags) and VL into Plasmid C (kappa CL); also called APFF / S28H
B6 was tested, and the ECL signal [3] was 517, the ECL signal [4] was 381 and the ECL signal [5] was 346. For the same binder, the ECL signal [6] was 355, the ECL signal [7] was 447 and the ECL signal [8] was 513. It also gave an ECL signal [9] of 435 and an ECL signal [10] of 482.

B7: Fab VH1-46_IGHD6-6*01_IGHJ1*01 S102A/S103P/S104F/H111F (APFF) & L6_IGKJ1*01 S30C (Fab, V domains shown)
VH: QVQLVQSGAEVKKPGASVKVSCKASGYTFTSYYMHWVRQAPGQGLEWMGIINPSGGSTSYAQKFQGRVTMTRDTSTSTVYMELSSLRSEDTAVYYCAREEYAPFSAEYFQFWGQGTLVTVSS
VL: EIVLTQSPATLSLSPGERATLSCRASQSVCSYLAWYQQKPGQAPRLLIYDASNRATGIPARFSGSGSGTDFTLTISSLEPEDFAVYYCQQRSNWPPWTFGQGTKVEIKR
notes: Fab; VH cloned into Plasmid A (CH1, His6 and Flag tags) and VL into Plasmid C (kappa CL); also called APFF / S30C
Work on B7 yielded an ECL signal [3] of 1790, an ECL signal [4] of 1010 and an ECL signal [5] of 1230. For the same binder, the ECL signal [6] was 1030, the ECL signal [7] was 1690 and the ECL signal [8] was 1080. It also gave an ECL signal [9] of 1190 and an ECL signal [10] of 1470.
